To fix the notation:
T1: human GIP receptor (human, UniProt P48546 22-466)
T1 sequence (looked up): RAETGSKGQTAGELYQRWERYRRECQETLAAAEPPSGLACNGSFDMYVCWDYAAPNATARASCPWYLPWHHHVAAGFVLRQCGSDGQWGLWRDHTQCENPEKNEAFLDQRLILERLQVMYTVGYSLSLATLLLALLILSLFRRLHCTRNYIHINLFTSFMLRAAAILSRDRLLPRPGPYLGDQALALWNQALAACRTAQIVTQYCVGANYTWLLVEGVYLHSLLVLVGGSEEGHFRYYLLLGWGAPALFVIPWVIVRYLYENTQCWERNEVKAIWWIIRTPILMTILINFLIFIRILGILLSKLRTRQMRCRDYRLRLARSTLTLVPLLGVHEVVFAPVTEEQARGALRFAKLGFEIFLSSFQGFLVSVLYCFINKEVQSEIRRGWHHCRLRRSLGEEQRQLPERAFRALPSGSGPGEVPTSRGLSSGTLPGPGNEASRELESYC

B1: SEQ ID NO: 13 (peptide)
peptide: H[Aib]QGTFTSDLSKLK([γGlu-γGlu-Palmitoyl])EKQRQ[Aib]EFIEWLKA[dA]GHPS[Aib]KPPPK-NH2
modifications: N-terminus assumed
SMILES: CCCCCCCCCCCCCCCC(=O)N[C@@H](CCC(=O)N[C@@H](CCC(=O)NCCCC[C@H](NC(=O)[C@H](CC(C)C)NC(=O)[C@H](CCCCN)NC(=O)[C@H](CO)NC(=O)[C@H](CC(C)C)NC(=O)[C@H](CC(=O)O)NC(=O)[C@H](CO)NC(=O)[C@@H](NC(=O)[C@H](Cc1ccccc1)NC(=O)[C@@H](NC(=O)CNC(=O)[C@H](CCC(N)=O)NC(=O)C(C)(C)NC(=O)[C@@H](N)Cc1c[nH]cn1)[C@@H](C)O)[C@@H](C)O)C(=O)N[C@@H](CCC(=O)O)C(=O)N[C@@H](CCCCN)C(=O)N[C@@H](CCC(N)=O)C(=O)N[C@@H](CCCNC(=N)N)C(=O)N[C@@H](CCC(N)=O)C(=O)NC(C)(C)C(=O)N[C@@H](CCC(=O)O)C(=O)N[C@@H](Cc1ccccc1)C(=O)N[C@H](C(=O)N[C@@H](CCC(=O)O)C(=O)N[C@@H](Cc1c[nH]c2ccccc12)C(=O)N[C@@H](CC(C)C)C(=O)N[C@@H](CCCCN)C(=O)N[C@@H](C)C(=O)N[C@H](C)C(=O)NCC(=O)N[C@@H](Cc1c[nH]cn1)C(=O)N1CCC[C@H]1C(=O)N[C@@H](CO)C(=O)NC(C)(C)C(=O)N[C@@H](CCCCN)C(=O)N1CCC[C@H]1C(=O)N1CCC[C@H]1C(=O)N1CCC[C@H]1C(=O)N[C@@H](CCCCN)C(N)=O)[C@@H](C)CC)C(=O)O)C(=O)O
B2: SEQ ID NO: 6 (peptide)
peptide: H[Aib]QGTFTSDLSKLK([γGlu-γGlu-Palmitoyl])EKQRQ[Aib]EFIEWLKAGGPPS[Aib]KPPPK-NH2
modifications: N-terminus assumed
SMILES: CCCCCCCCCCCCCCCC(=O)N[C@@H](CCC(=O)N[C@@H](CCC(=O)NCCCC[C@H](NC(=O)[C@H](CC(C)C)NC(=O)[C@H](CCCCN)NC(=O)[C@H](CO)NC(=O)[C@H](CC(C)C)NC(=O)[C@H](CC(=O)O)NC(=O)[C@H](CO)NC(=O)[C@@H](NC(=O)[C@H](Cc1ccccc1)NC(=O)[C@@H](NC(=O)CNC(=O)[C@H](CCC(N)=O)NC(=O)C(C)(C)NC(=O)[C@@H](N)Cc1c[nH]cn1)[C@@H](C)O)[C@@H](C)O)C(=O)N[C@@H](CCC(=O)O)C(=O)N[C@@H](CCCCN)C(=O)N[C@@H](CCC(N)=O)C(=O)N[C@@H](CCCNC(=N)N)C(=O)N[C@@H](CCC(N)=O)C(=O)NC(C)(C)C(=O)N[C@@H](CCC(=O)O)C(=O)N[C@@H](Cc1ccccc1)C(=O)N[C@H](C(=O)N[C@@H](CCC(=O)O)C(=O)N[C@@H](Cc1c[nH]c2ccccc12)C(=O)N[C@@H](CC(C)C)C(=O)N[C@@H](CCCCN)C(=O)N[C@@H](C)C(=O)NCC(=O)NCC(=O)N1CCC[C@H]1C(=O)N1CCC[C@H]1C(=O)N[C@@H](CO)C(=O)NC(C)(C)C(=O)N[C@@H](CCCCN)C(=O)N1CCC[C@H]1C(=O)N1CCC[C@H]1C(=O)N1CCC[C@H]1C(=O)N[C@@H](CCCCN)C(N)=O)[C@@H](C)CC)C(=O)O)C(=O)O
B3: SEQ ID NO: 15 (peptide)
peptide: H[Aib]QGTFTSDLSKLK([γGlu-Stearoyl])EKQRQ[Aib]EFIEWLKAGGPPS[Aib]KPPPK-NH2
modifications: N-terminus assumed
SMILES: CCCCCCCCCCCCCCCCCC(=O)N[C@@H](CCC(=O)NCCCC[C@H](NC(=O)[C@H](CC(C)C)NC(=O)[C@H](CCCCN)NC(=O)[C@H](CO)NC(=O)[C@H](CC(C)C)NC(=O)[C@H](CC(=O)O)NC(=O)[C@H](CO)NC(=O)[C@@H](NC(=O)[C@H](Cc1ccccc1)NC(=O)[C@@H](NC(=O)CNC(=O)[C@H](CCC(N)=O)NC(=O)C(C)(C)NC(=O)[C@@H](N)Cc1c[nH]cn1)[C@@H](C)O)[C@@H](C)O)C(=O)N[C@@H](CCC(=O)O)C(=O)N[C@@H](CCCCN)C(=O)N[C@@H](CCC(N)=O)C(=O)N[C@@H](CCCNC(=N)N)C(=O)N[C@@H](CCC(N)=O)C(=O)NC(C)(C)C(=O)N[C@@H](CCC(=O)O)C(=O)N[C@@H](Cc1ccccc1)C(=O)N[C@H](C(=O)N[C@@H](CCC(=O)O)C(=O)N[C@@H](Cc1c[nH]c2ccccc12)C(=O)N[C@@H](CC(C)C)C(=O)N[C@@H](CCCCN)C(=O)N[C@@H](C)C(=O)NCC(=O)NCC(=O)N1CCC[C@H]1C(=O)N1CCC[C@H]1C(=O)N[C@@H](CO)C(=O)NC(C)(C)C(=O)N[C@@H](CCCCN)C(=O)N1CCC[C@H]1C(=O)N1CCC[C@H]1C(=O)N1CCC[C@H]1C(=O)N[C@@H](CCCCN)C(N)=O)[C@@H](C)CC)C(=O)O
B4: SEQ ID NO: 14 (peptide)
peptide: H[Aib]QGTFTSDLSKLK([γGlu-Palmitoyl])EKQRQ[Aib]EFIEWLKAGGPPS[Aib]KPPPK-NH2
modifications: N-terminus assumed
SMILES: CCCCCCCCCCCCCCCC(=O)N[C@@H](CCC(=O)NCCCC[C@H](NC(=O)[C@H](CC(C)C)NC(=O)[C@H](CCCCN)NC(=O)[C@H](CO)NC(=O)[C@H](CC(C)C)NC(=O)[C@H](CC(=O)O)NC(=O)[C@H](CO)NC(=O)[C@@H](NC(=O)[C@H](Cc1ccccc1)NC(=O)[C@@H](NC(=O)CNC(=O)[C@H](CCC(N)=O)NC(=O)C(C)(C)NC(=O)[C@@H](N)Cc1c[nH]cn1)[C@@H](C)O)[C@@H](C)O)C(=O)N[C@@H](CCC(=O)O)C(=O)N[C@@H](CCCCN)C(=O)N[C@@H](CCC(N)=O)C(=O)N[C@@H](CCCNC(=N)N)C(=O)N[C@@H](CCC(N)=O)C(=O)NC(C)(C)C(=O)N[C@@H](CCC(=O)O)C(=O)N[C@@H](Cc1ccccc1)C(=O)N[C@H](C(=O)N[C@@H](CCC(=O)O)C(=O)N[C@@H](Cc1c[nH]c2ccccc12)C(=O)N[C@@H](CC(C)C)C(=O)N[C@@H](CCCCN)C(=O)N[C@@H](C)C(=O)NCC(=O)NCC(=O)N1CCC[C@H]1C(=O)N1CCC[C@H]1C(=O)N[C@@H](CO)C(=O)NC(C)(C)C(=O)N[C@@H](CCCCN)C(=O)N1CCC[C@H]1C(=O)N1CCC[C@H]1C(=O)N1CCC[C@H]1C(=O)N[C@@H](CCCCN)C(N)=O)[C@@H](C)CC)C(=O)O
B5: SEQ ID NO: 16 (peptide)
peptide: H[Aib]QGTFTSDLSKLK([γGlu-γGlu-AEEA-Palmitoyl])EKQRQ[Aib]EFIEWLKAGGHPS[Aib]KPPPK-NH2
modifications: N-terminus assumed
SMILES: CCCCCCCCCCCCCCCC(=O)NCCOCCOCC(=O)N[C@@H](CCC(=O)N[C@@H](CCC(=O)NCCCC[C@H](NC(=O)[C@H](CC(C)C)NC(=O)[C@H](CCCCN)NC(=O)[C@H](CO)NC(=O)[C@H](CC(C)C)NC(=O)[C@H](CC(=O)O)NC(=O)[C@H](CO)NC(=O)[C@@H](NC(=O)[C@H](Cc1ccccc1)NC(=O)[C@@H](NC(=O)CNC(=O)[C@H](CCC(N)=O)NC(=O)C(C)(C)NC(=O)[C@@H](N)Cc1c[nH]cn1)[C@@H](C)O)[C@@H](C)O)C(=O)N[C@@H](CCC(=O)O)C(=O)N[C@@H](CCCCN)C(=O)N[C@@H](CCC(N)=O)C(=O)N[C@@H](CCCNC(=N)N)C(=O)N[C@@H](CCC(N)=O)C(=O)NC(C)(C)C(=O)N[C@@H](CCC(=O)O)C(=O)N[C@@H](Cc1ccccc1)C(=O)N[C@H](C(=O)N[C@@H](CCC(=O)O)C(=O)N[C@@H](Cc1c[nH]c2ccccc12)C(=O)N[C@@H](CC(C)C)C(=O)N[C@@H](CCCCN)C(=O)N[C@@H](C)C(=O)NCC(=O)NCC(=O)N[C@@H](Cc1c[nH]cn1)C(=O)N1CCC[C@H]1C(=O)N[C@@H](CO)C(=O)NC(C)(C)C(=O)N[C@@H](CCCCN)C(=O)N1CCC[C@H]1C(=O)N1CCC[C@H]1C(=O)N1CCC[C@H]1C(=O)N[C@@H](CCCCN)C(N)=O)[C@@H](C)CC)C(=O)O)C(=O)O
B6: SEQ ID NO: 17 (peptide)
peptide: H[Aib]QGTFTSDLSKLK([γGlu-γGlu-AEEA-Palmitoyl])EKQRQ[Aib]EFIEWLKA[dA]GHPS[Aib]KPPPK-NH2
modifications: N-terminus assumed
SMILES: CCCCCCCCCCCCCCCC(=O)NCCOCCOCC(=O)N[C@@H](CCC(=O)N[C@@H](CCC(=O)NCCCC[C@H](NC(=O)[C@H](CC(C)C)NC(=O)[C@H](CCCCN)NC(=O)[C@H](CO)NC(=O)[C@H](CC(C)C)NC(=O)[C@H](CC(=O)O)NC(=O)[C@H](CO)NC(=O)[C@@H](NC(=O)[C@H](Cc1ccccc1)NC(=O)[C@@H](NC(=O)CNC(=O)[C@H](CCC(N)=O)NC(=O)C(C)(C)NC(=O)[C@@H](N)Cc1c[nH]cn1)[C@@H](C)O)[C@@H](C)O)C(=O)N[C@@H](CCC(=O)O)C(=O)N[C@@H](CCCCN)C(=O)N[C@@H](CCC(N)=O)C(=O)N[C@@H](CCCNC(=N)N)C(=O)N[C@@H](CCC(N)=O)C(=O)NC(C)(C)C(=O)N[C@@H](CCC(=O)O)C(=O)N[C@@H](Cc1ccccc1)C(=O)N[C@H](C(=O)N[C@@H](CCC(=O)O)C(=O)N[C@@H](Cc1c[nH]c2ccccc12)C(=O)N[C@@H](CC(C)C)C(=O)N[C@@H](CCCCN)C(=O)N[C@@H](C)C(=O)N[C@H](C)C(=O)NCC(=O)N[C@@H](Cc1c[nH]cn1)C(=O)N1CCC[C@H]1C(=O)N[C@@H](CO)C(=O)NC(C)(C)C(=O)N[C@@H](CCCCN)C(=O)N1CCC[C@H]1C(=O)N1CCC[C@H]1C(=O)N1CCC[C@H]1C(=O)N[C@@H](CCCCN)C(N)=O)[C@@H](C)CC)C(=O)O)C(=O)O

Numbered stars: 1 amine (or outer) side, 2 acyl side, 3 side chain; on linkers, the order of the positions; unused ones are H or OH. Square brackets hold non-standard residues; d marks the D form. Side chains are listed from the residue outwards. Ends that are not written are not given here. * marks the point of attachment. γGlu = O=C(O)[C@H](CCC(=O)[*:2])N[*:1]; Stearoyl = CCCCCCCCCCCCCCCCCC(=O)*; Palmitoyl = CCCCCCCCCCCCCCCC(=O)*; AEEA = NCCOCCOCC(=O)O; Aib = CC(C)(N)C(=O)O

In one assay the target is T1, human GIP receptor. Nature of the assay: cell-based or functional assay.
B1: the “EC50 hGIP R (cAMP formation)” value amounted to 20.4 pM.
Same read-out and setting: the same measure for B2: 7.9 pM; for B3: 26.1 pM; for B4: 18.2 pM.
As for B5, the “EC50 hGIP R (cAMP formation)” value is 7.5 pM.
For the molecule B6, the “EC50 hGIP R (cAMP formation)” value is 11.4 pM.

The target of a further assay is human GLP-1 receptor (human, UniProt P43220 24-463). Put plainly: cell-based or functional assay.
As for B1, the “EC50 hGLP-1R (cAMP formation)” value was found to be 3.8 pM.
On to B2, for which the “EC50 hGLP-1R (cAMP formation)” value was 2.8 pM.
Regarding B3, the “EC50 hGLP-1R (cAMP formation)” value amounted to 5.7 pM.
Turning to B4, the “EC50 hGLP-1R (cAMP formation)” value is 5.7 pM.
On to B5, for which the “EC50 hGLP-1R (cAMP formation)” value worked out at 1.3 pM.
On the same count and under the same terms, the value for B6 was 1.8 pM.

For another assay, the target named is human glucagon receptor (human, UniProt P47871 26-477). Nature of the assay: cell-based or functional assay.
human glucagon receptor, sequence (P47871 26-477): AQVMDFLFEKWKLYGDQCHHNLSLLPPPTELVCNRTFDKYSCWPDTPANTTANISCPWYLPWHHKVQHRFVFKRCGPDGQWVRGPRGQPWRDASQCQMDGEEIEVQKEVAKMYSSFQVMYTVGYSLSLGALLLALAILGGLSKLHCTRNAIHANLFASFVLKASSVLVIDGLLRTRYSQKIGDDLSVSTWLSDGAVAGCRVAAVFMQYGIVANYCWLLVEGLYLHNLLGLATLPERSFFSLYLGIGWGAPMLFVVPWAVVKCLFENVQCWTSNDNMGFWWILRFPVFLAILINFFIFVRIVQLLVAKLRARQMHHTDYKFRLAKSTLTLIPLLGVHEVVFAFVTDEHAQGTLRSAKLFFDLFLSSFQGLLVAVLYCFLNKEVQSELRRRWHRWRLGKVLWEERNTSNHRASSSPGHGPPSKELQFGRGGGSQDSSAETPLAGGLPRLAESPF
Regarding B1, the “EC50 hGlucagon R (cAMP formation)” value was 25.8 pM.
Still for that read-out and setting: the same measure for B2: 16.4 pM; for B3: 15.6 pM; for B4: 31.6 pM.
Still for that read-out and setting: the same measure for B5: 18.6 pM.
For B6, the “EC50 hGlucagon R (cAMP formation)” value is 22 pM.

These data come from patent US20180155407A1 (Sanofi, published 2018).
